Reference: patent US20250361297A1, “ANTI- SIGLEC-15 BINDING MOLECULES AND METHODS OF USE” (ADAPTAM THERAPEUTICS, S.L., priority 2024, published 2025)

Assays:
Siglec-15 positive cells = test: Internalization assay (Zenon pHrodo iFL Green); assay type: cell-based; conditions: kinetics over 1, 2, 4, 16, and 24 hours
Description: Internalization assay (Zhenon pHrodo): Sufficient volumes of 4× working solution of anti-Siglec-15 antibodies (10 nM) were prepared in cell culture medium for a total of 25 μL for each well of a 96-well plate. A working solution of Zenon™ pHrodo™ iFL IgG Labeling Reagent was prepared at 30 nM and 25 μL were added to each well. The mix was incubated for 5 minutes at room temperature to allow the labeling complexes to form. 5 mL of suspension cells at 2×10^6 cells/mL in cell culture medium were prepared and 50 μL of cells were added to each well of the 96-well plate containing the mix of anti-Siglec-15 antibody and the Zenon™ labeling reagent. Cells were incubated with the labeling complex for different timepoints (1-24 hours) under standard cell culture conditions. Fluorescence was analyzed by flow cytometry.

mouse Siglec-15 = target: T1, mouse Siglec-15 (Mus musculus, UniProt A7E1W8); test: Titration on HEK293T cells expressing mouse Siglec-15 (flow cytometry); assay type: binding; conditions: titrated from 10 μg/ml
T1 construct: HEK293T cells were genetically engineered to express full-length mouse Siglec-15; expressed in transfected cells; host or cells: HEK293T
T1 sequence (A7E1W8 24-342): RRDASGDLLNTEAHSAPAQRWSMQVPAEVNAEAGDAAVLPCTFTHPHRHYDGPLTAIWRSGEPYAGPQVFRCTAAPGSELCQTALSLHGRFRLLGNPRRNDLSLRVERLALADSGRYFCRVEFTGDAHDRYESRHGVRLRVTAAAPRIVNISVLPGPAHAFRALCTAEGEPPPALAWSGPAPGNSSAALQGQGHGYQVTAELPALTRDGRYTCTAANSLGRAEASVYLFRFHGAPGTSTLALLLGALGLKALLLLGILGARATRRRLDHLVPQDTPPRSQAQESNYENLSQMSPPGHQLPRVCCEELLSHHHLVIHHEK
Description: Cross-species reactivity and domain-specific binding of the full-length anti-Siglec-15 antibody candidates were evaluated. The antibodies were titrated against HEK293T cells expressing mouse Siglec-15 or HEK293T cells expressing a truncated human Siglec-15 consisting solely of domain 2 (FIG. 9). […] However, the binding to mouse Siglec-15 was evident for all tested antibodies, with EC50 values calculated to rank the affinity of the antibodies.
(§1) For the ELISA, antigens were immobilized on high-binding plates, and the full-length IgG1 anti-Siglec-15 antibodies were titrated beginning at a concentration of 10 μg/ml. After washing, an anti-human IgG Fab-specific HRP-conjugated secondary antibody was applied for detection. […] Optical densities were measured to generate binding curves from which EC50 values were derived. […] Flow cytometric analysis was conducted, and fluorescence intensity was used to calculate EC50 values, providing a quantitative assessment of the antibodies' cell surface binding efficacy. […] Antibodies were titrated starting at a concentration of 10 μg/ml and detected with an anti-human Fc-specific secondary antibody to detect bound primary antibodies. The half-maximal effective concentration (EC50) was calculated for each antibody to determine its binding affinity to mouse Siglec-15. Results were analyzed and ranked based on the EC50 values.

human Siglec-15 [1] = target: T2, human Siglec-15 (Homo sapiens, UniProt Q6ZMC9); test: Competitive flow cytometry assay with benchmark antibodies; assay type: binding
T2 construct: expressed in transfected cells
T2 sequence (Q6ZMC9 20-328): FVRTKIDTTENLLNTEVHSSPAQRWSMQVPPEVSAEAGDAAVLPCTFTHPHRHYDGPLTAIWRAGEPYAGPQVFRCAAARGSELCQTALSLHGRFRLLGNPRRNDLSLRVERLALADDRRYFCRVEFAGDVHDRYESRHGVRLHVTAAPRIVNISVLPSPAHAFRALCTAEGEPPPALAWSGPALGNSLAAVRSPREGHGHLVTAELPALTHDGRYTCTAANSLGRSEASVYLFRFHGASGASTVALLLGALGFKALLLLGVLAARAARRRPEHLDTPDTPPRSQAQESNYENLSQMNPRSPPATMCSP
Description: Epitope mapping assay by Flow cytometry: Competition with benchmark mouse IgG antibodies: 50,000 cells/well of THP-1 S15 OE were added to a round bottom 96 well plate, and centrifuged at 450×G for 5 minutes, and the supernatant was discarded. Human anti-siglec-15 IgG antibodies (starting at 198 nM, 3-fold serial dilution in staining buffer) were added to 100 μl of staining buffer and cells were resuspended with it and incubated for 40 minutes on ice. 100 μl of staining buffer were added to wells, centrifuged at 450× G for 5 minutes and the supernatants discarded. Benchmark mouse IgG antibodies were diluted at 33.3 nM and cells resuspended in 100 μl of the mix and incubated for 40 minutes on ice. Then, 100 μl of staining buffer were added to wells, centrifuged at 450×G for 5 minutes and the supernatants discarded. The secondary antibody anti-mouse IgG-Alexa647 was prepared at 1:200 dilution in 100 μl of staining buffer and added to each well, and cells were incubated for 40 minutes on ice. Cells were washed with 100 μl of staining buffer and centrifuged at 450×G for 5 minutes to discard the supernatant. Cells were resuspended in 150 μl of staining buffer and acquired in a flow cytometer.

human Siglec-15 [2] = target: T2, human Siglec-15; test: Titration of full-length IgG1 antibodies on human Siglec-15 (ELISA / flow cytometry on MOLM-13 Siglec-15 cells); assay type: binding; conditions: full-length human IgG1, titrated from 10 μg/ml
Description: The binding efficacy of the converted full-length IgG1 anti-Siglec-15 antibodies was then evaluated using both ELISA and flow cytometry. By immobilizing the antigen and titrating the antibodies starting at a concentration of 10 μg/ml, binding kinetics were determined via ELISA, using an anti-human IgG Fab-specific secondary antibody for detection. Palivizumab served as the negative control in these assays (FIG. 8A). Complementary to the ELISA, flow cytometry assays provided insight into the binding behavior of the antibodies on the cell surface. […] From these assays, EC50 values were calculated, offering a quantitative measure of the antibodies' affinity towards Siglec-15, and leading to the selection of 7 unique hits (Table 10).
as §1, with “μg/ml.” for “μg/ml. After washing, an anti-human IgG Fab-specific HRP-conjugated secondary antibody was applied for detection.”, “The half-maximal effective concentration (EC50) was calculated for each antibody to determine its binding affinity to mouse Siglec-15. Results were analyzed and ranked based on the EC50 values.” left out

B1: ZLA-1243-E01: fully human anti-Siglec-15 IgG1, silenced Fc, phage display; VH SEQ ID NO: 34, VL SEQ ID NO: 35 (antibody, V domains shown)
VH: QVQLVQSGGGLVQPGRSLRLSCAASGFTFDDYAMHWVRQAPGKGLEWVSGISWNSGSIGYADSVKGRFTISRDNAKNSLYLQMNSLRAEDTALYYCAKGLWPSYDLDAFDIWGQGTMVTVSS
VL: QSALTQPASVSGSPGQSITLSCTGTSSDVGAYNFVSWYQQHPGTAPKLMIYEVSNRPSGVSDRFSGSKSGNTASLTISGLQAEDEADYYCSSYTSTIPPFVFGTGTKVTVL
modifications: IgG1 silenced Fc; ZLA-1243-E01 VH; ZLA-1243-E01 VL
internalization, fold increase over isotype control (Siglec-15 positive cells): approximately 6 fold
EC50 (ng/mL) mS15 (mouse Siglec-15): 84.88 ng/mL
inhibition of binding of A2A5C7E8 (benchmark 2) (human Siglec-15 [1]; across all concentrations (FIG. 18D)): outperformed 5G12
inhibition of binding of 5G12 (benchmark 1) (human Siglec-15 [1]; at concentrations above 10 nM (FIG. 18C)): outperformed A2A5C7E8
EC50 (ng/mL) hS15 (human Siglec-15 [2]): 174.3 ng/mL
